Results as given in the supplement of paper PMC10201428.
± gives the standard deviation of the averaged measurements.

B1: library; a variant is named by its letters at N, in order (parent)
chain: ACATTTGTTGATACAACCATAAAATGATAATTACACCCATAAATTGATAATTATCACACCCANNNNNNNNNNNNNNCTCTGATCATAGTCAGACCAACATTGCTACGACCCGTATTCGCACCGACAC

Key:
[1] = variants of: B1; test: relative integration efficiency (T-RL orientation) vs wild-type transposon end (log2 (normalized fold change)); transposon end mutated: right end (5 bp flank + 75 bp right end); higher = more efficient transposition; details: with VchCAST RNA-guided transposition machinery (E. coli BL21(DE3) host, lacZ target)
Outline: (§1)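 Relative integration efficiency is a fold change of output over input barcode abundance, normalised to reference barcodes and log-transformed. Input plasmids and genomic integration junctions were PCR-amplified and Illumina-sequenced from E. coli BL21(DE3) co-transformed with a T7-driven effector plasmid and pUC57 donor pools of 1549 left-end or 1849 right-end transposon variants. Plating was done with 0.1 mM IPTG at 37°C for 18 h, with two biological output replicates and four reference barcodes.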

[2] = variants of: B1; test: relative integration efficiency (T-LR orientation) vs wild-type transposon end (log2 (normalized fold change)); transposon end mutated: right end (5 bp flank + 75 bp right end); higher = more efficient transposition; details: with VchCAST RNA-guided transposition machinery (E. coli BL21(DE3) host, lacZ target)
Outline: as §1

Variant | relative integration efficiency (log2) [1] | relative integration efficiency (log2) [2]
ACATTTGTTGATACAACCATAAAATGATAATTACACCCATAAATTGATATTTATCACACCCATAAATTGATATTGCCTCTGATCATAGTCAGACCAACATTGCTACGACCCGTATTCGCACCGACAC [TAAATTGATATTGC A50T] | -0.455 ± 0.22 | -0.0702 ± 0.025
ACATTTGTTGATACAACCATAAAATGATAATTACACCCATAAATTGATAATTCTCACACCCATAAATTGATATTGCCTCTGATCATAGTCAGACCAACATTGCTACGACCCGTATTCGCACCGACAC [TAAATTGATATTGC A53C] | -0.408 ± 0.19 | 0.07 ± 0.052
ACATTTGTTGATACAACCATAAAATGATAATTACACCCATAAATTGATAATTGTCACACCCATAAATTGATATTGCCTCTGATCATAGTCAGACCAACATTGCTACGACCCGTATTCGCACCGACAC [TAAATTGATATTGC A53G] | -0.385 ± 0.25 | -0.269 ± 0.048
ACATTTGTTGATACAACCATAAAATGATAATTACACCCATAAATTGATAATTTTCACACCCATAAATTGATATTGCCTCTGATCATAGTCAGACCAACATTGCTACGACCCGTATTCGCACCGACAC [TAAATTGATATTGC A53T] | -0.33 ± 0.038 | -0.318 ± 0.48
ACATTTGTTGATACAACCATAAAATGATAATTACACCCATAAATTGATAATTATCCCACCCATAAATTGATATTGCCTCTGATCATAGTCAGACCAACATTGCTACGACCCGTATTCGCACCGACAC [TAAATTGATATTGC A56C] | -0.0165 ± 0.22 | 0.317 ± 0.21
ACATTTGTTGATACAACCATAAAATGATAATTACACCCATAAATTGATAATTATCGCACCCATAAATTGATATTGCCTCTGATCATAGTCAGACCAACATTGCTACGACCCGTATTCGCACCGACAC [TAAATTGATATTGC A56G] | -0.248 ± 0.083 | 0.362 ± 0.33
ACATTTGTTGATACAACCATAAAATGATAATTACACCCATAAATTGATAATTATCTCACCCATAAATTGATATTGCCTCTGATCATAGTCAGACCAACATTGCTACGACCCGTATTCGCACCGACAC [TAAATTGATATTGC A56T] | -0.4 ± 0.052 | 0.0769 ± 0.005
ACATTTGTTGATACAACCATAAAATGATAATTACACCCATAAATTGATAATTATCACCCCCATAAATTGATATTGCCTCTGATCATAGTCAGACCAACATTGCTACGACCCGTATTCGCACCGACAC [TAAATTGATATTGC A58C] | -0.461 ± 0.11 | 1.05 ± 0.17
ACATTTGTTGATACAACCATAAAATGATAATTACACCCATAAATTGATAATTATCACGCCCATAAATTGATATTGCCTCTGATCATAGTCAGACCAACATTGCTACGACCCGTATTCGCACCGACAC [TAAATTGATATTGC A58G] | -0.236 ± 0.0068 | 1.32 ± 0.19
ACATTTGTTGATACAACCATAAAATGATAATTACACCCATAAATTGATAATTATCACTCCCATAAATTGATATTGCCTCTGATCATAGTCAGACCAACATTGCTACGACCCGTATTCGCACCGACAC [TAAATTGATATTGC A58T] | -0.281 ± 0.054 | 1.17 ± 0.41
ACATTTGTTGATACAACCATAAAATGATAATTACACCCATAAATTGATAATTATCACACCCCGAAATTGATATTGCCTCTGATCATAGTCAGACCAACATTGCTACGACCCGTATTCGCACCGACAC [GAAATTGATATTGC A62C] | -0.604 ± 0.16 | 2.52 ± 0.065
ACATTTGTTGATACAACCATAAAATGATAATTACACCCATAAATTGATAATTATCACACCCCTAAATTGATATTGCCTCTGATCATAGTCAGACCAACATTGCTACGACCCGTATTCGCACCGACAC [TAAATTGATATTGC A62C] | -0.726 ± 0.016 | 2.18 ± 0.2
ACATTTGTTGATACAACCATAAAATGATAATTACACCCATAAATTGATAATTATCACACCCGTAAATTGATATTGCCTCTGATCATAGTCAGACCAACATTGCTACGACCCGTATTCGCACCGACAC [TAAATTGATATTGC A62G] | -0.0391 ± 0.14 | 0.97 ± 0.12
ACATTTGTTGATACAACCATAAAATGATAATTACACCCATAAATTGATAATTATCACACCCTAAAATTGATATTGCCTCTGATCATAGTCAGACCAACATTGCTACGACCCGTATTCGCACCGACAC [AAAATTGATATTGC A62T] | -0.47 ± 0.19 | 1.67 ± 0.025
ACATTTGTTGATACAACCATAAAATGATAATTACACCCATAAATTGATAATTATCACACCCTTAAATTGATATTGCCTCTGATCATAGTCAGACCAACATTGCTACGACCCGTATTCGCACCGACAC [TAAATTGATATTGC A62T] | -0.435 ± 0.12 | 1.36 ± 0.086
AAATTTGTTGATACAACCATAAAATGATAATTACACCCATAAATTGATAATTATCACACCCATAAATTGATATTGCCTCTGATCATAGTCAGACCAACATTGCTACGACCCGTATTCGCACCGACAC [TAAATTGATATTGC C2A] | 0.0243 ± 0.04 | 0.336 ± 0.22
AGATTTGTTGATACAACCATAAAATGATAATTACACCCATAAATTGATAATTATCACACCCATAAATTGATATTGCCTCTGATCATAGTCAGACCAACATTGCTACGACCCGTATTCGCACCGACAC [TAAATTGATATTGC C2G] | 0.0801 ± 0.019 | 0.363 ± 0.28
ATATTTGTTGATACAACCATAAAATGATAATTACACCCATAAATTGATAATTATCACACCCATAAATTGATATTGCCTCTGATCATAGTCAGACCAACATTGCTACGACCCGTATTCGCACCGACAC [TAAATTGATATTGC C2T] | -0.0194 ± 0.017 | 0.0698 ± 0.22
ACATTTGTTGATAAAACCATAAAATGATAATTACACCCATAAATTGATAATTATCACACCCATAAATTGATATTGCCTCTGATCATAGTCAGACCAACATTGCTACGACCCGTATTCGCACCGACAC [TAAATTGATATTGC C14A] | -0.119 ± 0.027 | -0.254 ± 0.16
ACATTTGTTGATAGAACCATAAAATGATAATTACACCCATAAATTGATAATTATCACACCCATAAATTGATATTGCCTCTGATCATAGTCAGACCAACATTGCTACGACCCGTATTCGCACCGACAC [TAAATTGATATTGC C14G] | -0.477 ± 0.036 | -1.2 ± 0.21
ACATTTGTTGATATAACCATAAAATGATAATTACACCCATAAATTGATAATTATCACACCCATAAATTGATATTGCCTCTGATCATAGTCAGACCAACATTGCTACGACCCGTATTCGCACCGACAC [TAAATTGATATTGC C14T] | -0.00853 ± 0.13 | 0.0199 ± 0.32
ACATTTGTTGATACAAACATAAAATGATAATTACACCCATAAATTGATAATTATCACACCCATAAATTGATATTGCCTCTGATCATAGTCAGACCAACATTGCTACGACCCGTATTCGCACCGACAC [TAAATTGATATTGC C17A] | -0.124 ± 0.042 | -0.331 ± 0.098
ACATTTGTTGATACAAGCATAAAATGATAATTACACCCATAAATTGATAATTATCACACCCATAAATTGATATTGCCTCTGATCATAGTCAGACCAACATTGCTACGACCCGTATTCGCACCGACAC [TAAATTGATATTGC C17G] | -0.0518 ± 0.013 | -0.402 ± 0.0041
